Test results taken from patent US20040259176A1, “Structural basis for the guanine nucleotide-binding activity of tissue transglutaminase and its regulation of transamidation activity” (priority 2003, published 2004).

How the values were obtained:
Assay type in all cases: cell-based, human
[1] = system: tissue transglutaminase (TG); assay: TG expression by Western blot in SKBR3 cells; details: 5 μM RA or 100 ng/ml EGF for 2 days, FIG. 9A
Method: Cells were grown for 2 days in complete media and subsequently placed in low serum. The following day, cells were left untreated (0), treated with 5 μM RA (RA), 100 ng/ml EGF (EGF), or co-treated with 5 μM RA and 100 ng/ml EGF (RA/EGF) for 2 days and then lysed. In FIG. 9A, the cell extracts were used to determine TG GTP-binding activities (GTP-TGase) using an affinity-labeling assay with radioactive GTP as outlined in Example 11. Western blot analysis using TG and actin antibodies was performed to assess the expression levels of each of these proteins (TGase and actin). In FIG. 9B, the same cell lysates were assayed for TG transamidation activities as determined by the incorporation of 5-(biotin-amido) pentylamine into proteins as described in Example 12. The experiments were conducted in triplicate, quantitated, and the values from each experiment were averaged together and plotted. In FIG. 9C, SKBR3 cells were seeded at 1×10^5 cells/well and grown in low serum medium +/−5 μM RA and +/−100 ng/ml EGF for the times indicated and then counted. The results from three independent growth assays were averaged together and plotted. […]
NIH3T3 cells were grown in Dulbecco's modified Eagle's medium containing 10% calf serum and 100 units/ml penicillin. […] Protein concentrations were determined using the Bio-Rad DC protein assay. […]

[2] = system: tissue transglutaminase (TG); assay: TG transamidation assay (incorporation of 5-(biotin-amido) pentylamine) in SKBR3 cell extracts; details: SKBR3 cells, EGF compared with RA; FIG. 9A-B
Method: (§1) Cells were grown for 2 days in complete media and subsequently placed in low serum. The following day, cells were left untreated (0), treated with 5 μM RA (RA), 100 ng/ml EGF (EGF), or co-treated with 5 μM RA and 100 ng/ml EGF (RA/EGF) for 2 days and then lysed. In FIG. 9A, the cell extracts were used to determine TG GTP-binding activities (GTP-TGase) using an affinity-labeling assay with radioactive GTP as outlined in Example 11. Western blot analysis using TG and actin antibodies was performed to assess the expression levels of each of these proteins (TGase and actin). In FIG. 9B, the same cell lysates were assayed for TG transamidation activities as determined by the incorporation of 5-(biotin-amido) pentylamine into proteins as described in Example 12. The experiments were conducted in triplicate, quantitated, and the values from each experiment were averaged together and plotted. In FIG. 9C, SKBR3 cells were seeded at 1×10^5 cells/well and grown in low serum medium +/−5 μM RA and +/−100 ng/ml EGF for the times indicated and then counted. The results from three independent growth assays were averaged together and plotted.
TG transamidation assays were performed as previously described with slight modifications. 15 μg of whole cell extracts were incubated in a buffer containing 2 mM 5-(biotin-amido) pentylamine, 40 mM CaCl2, and 40 mM DTT for 20 minutes. […]

[3] = system: tissue transglutaminase (TG); assay: TG GTP-binding activity by photoaffinity labeling with [α-32P]GTP in SKBR3 cell lysates; details: SKBR3 cells, 5 μM RA or 100 ng/ml EGF for 2 days; FIG. 9A
Method: as §1
Photoaffinity labeling of TG was performed by incubating whole cell lysates with 5 μCi of [α-^32P]GTP in 50 mM Tris-HCl, pH 7.4, 2 mM EGTA, 1 mM DTT, 20% (w/v) glycerol, 100 mM NaCl, and 500 μM AMP-PNP for 10 minutes at room temperature. […]

SKBR3 cells [4] = assay: Cell growth assay; details: low serum medium, 5 μM RA or 100 ng/ml EGF, up to 6 days; FIG. 9C
Method: as §1
Cells were seeded at 1×10^5 cells/well and grown in medium containing 0.5% serum +/−5 μM RA and +/−100 ng/ml EGF. Every 2 days the medium was changed. At 0, 2, 4, and 6 days of treatment, the cells were collected and counted.

[5] = system: tissue transglutaminase (TG); assay: TG expression and activation in MDAMB231 cells (Western blot, GTP-binding, transamidation); details: growth factor (EGF) stimulation, FIG. 9A-B
Method: as §1
Total cell lysates from each sample were combined with Laemmli sample buffer, boiled, and subjected to SDS-polyacrylamide gel electrophoresis (PAGE). […]

SKBR3 cells [6] = assay: Nuclear condensation or blebbing assay (doxorubicin-induced apoptosis); details: SKBR3 cells stimulated with EGF (100 ng/ml) for 2 days prior to doxorubicin; FIG. 11B
Method: FIGS. 1A-D illustrate that the protective effect of EGF from doxorubicin-induced apoptosis is blocked by MDC in SKBR3 cells. In FIG. 11A, nearly confluent cultures of SKBR3 and MDAMB231 cells were placed in low serum medium. The following day, the cells were exposed to low serum medium +/−0.25 μM doxorubicin (Dox) for the times indicated and subsequently lysed. The presence of the activated form of caspase 3 (cleaved caspase 3) and actin (actin) in the cell extracts was assessed by Western blot analysis. In FIG. 11B, SKBR3 and MDAMB231 cells were maintained in low serum medium (0) or treated with 10 μM MDC (MDC) for 1.5 days. […] All cell cultures were then treated with +/−0.25 μM doxorubicin (Dox) for about 1 day and the cells were scored for programmed cell death as described in Example 13. […]
NIH3T3 cells were grown in Dulbecco's modified Eagle's medium containing 10% calf serum and 100 units/ml penicillin. […] Protein concentrations were determined using the Bio-Rad DC protein assay.
Cells were seeded in 6-well dishes and grown in complete medium for 2 days. […] The cultures were then incubated with fresh medium containing RA, EGF, and MDC and +/−0.2 μM doxorubicin for an additional 1.5 days and were fixed and stained with 4,6-diamidino-2-phenylindole (2 μg/ml) for viewing by fluorescence microscopy. […]

B1: EGF: epidermal growth factor, a known mitogen and survival factor (protein, UniProt P01133 23-1207, looked up)
Pro-epidermal growth factor: PQHWSCPEGTLAGNGNSTCVGPAPFLIFSHGNSIFRIDTEGTNYEQLVVDAGVSVIMDFHYNEKRIYWVDLERQLLQRVFLNGSRQERVCNIEKNVSGMAINWINEEVIWSNQQEGIITVTDMKGNNSHILLSALKYPANVAVDPVERFIFWSSEVAGSLYRADLDGVGVKALLETSEKITAVSLDVLDKRLFWIQYNREGSNSLICSCDYDGGSVHISKHPTQHNLFAMSLFGDRIFYSTWKMKTIWIANKHTGKDMVRINLHSSFVPLGELKVVHPLAQPKAEDDTWEPEQKLCKLRKGNCSSTVCGQDLQSHLCMCAEGYALSRDRKYCEDVNECAFWNHGCTLGCKNTPGSYYCTCPVGFVLLPDGKRCHQLVSCPRNVSECSHDCVLTSEGPLCFCPEGSVLERDGKTCSGCSSPDNGGCSQLCVPLSPVSWECDCFPGYDLQLDEKSCAASGPQPFLLFANSQDIRHMHFDGTDYGTLLSQQMGMVYALDHDPVENKIYFAHTALKWIERANMDGSQRERLIEEGVDVPEGLAVDWIGRRFYWTDRGKSLIGRSDLNGKRSKIITKENISQPRGIAVHPMAKRLFWTDTGINPRIESSSLQGLGRLVIASSDLIWPSGITIDFLTDKLYWCDAKQSVIEMANLDGSKRRRLTQNDVGHPFAVAVFEDYVWFSDWAMPSVMRVNKRTGKDRVRLQGSMLKPSSLVVVHPLAKPGADPCLYQNGGCEHICKKRLGTAWCSCREGFMKASDGKTCLALDGHQLLAGGEVDLKNQVTPLDILSKTRVSEDNITESQHMLVAEIMVSDQDDCAPVGCSMYARCISEGEDATCQCLKGFAGDGKLCSDIDECEMGVPVCPPASSKCINTEGGYVCRCSEGYQGDGIHCLDIDECQLGEHSCGENASCTNTEGGYTCMCAGRLSEPGLICPDSTPPPHLREDDHHYSVRNSDSECPLSHDGYCLHDGVCMYIEALDKYACNCVVGYIGERCQYRDLKWWELRHAGHGQQQKVIVVAVCVVVLVMLLLLSLWGAHYYRTQKLLSKNPKNPYEESSRDVRSRRPADTEDGMSSCPQPWFVVIKEHQDLKNGGQPVAGEDGQAADGSMQPTSWRQEPQLCGMGTEQGCWIPVSSDKGSCPQVMERSFHMPSYGTQTLEGGVEKPHSLLSANPLWQQRALDPPHQMELTQ
modifications: Pro-epidermal growth factor
With B1 the TG expression [1] was “up-regulated TG expression”, the “GTP-binding and enzymatic (transamidation) activity of TG” value [2] was “more effective than RA” and the “TG GTP-binding activity” value [3] was “increased GTP-binding”. For the same molecule, the “growth of SKBR3 cells” value (SKBR3 cells [4]) was “did not impede the growth”, the “constitutive level of TG expression or activation” value [5] was “did not alter the constitutive level of TG expression or activation” and the “reduction in the rate of apoptosis” value (SKBR3 cells [6]) was 50%.
